Publication PMC9097366 (Cell reports, 2022)

B1: S. cerevisiae Atg23 FL (recombinant, purified) (natural protein, UniProt Q06671 1-453, looked up)
chain: MELNQVLEKKEQILQYLGTLVGLHEKALSDVNSASQVTSIRKDITICLNDLCRINDLLVSHDGLLKREIGSLLRDKQELLELNEREQLLWKERKSWHIKQETDAAPADYVIDKDAIITISSHHRTSLNKYIESVGAENTILSNTDDSDAMIEEVQNAESSADQMIRNYKLLQLSHKQAKSEIIRLETLLRDFKKDNKFIEEELKRQSGRIRSEMGNIDFHLSKIEESKHQLMKRIGFESPLTQEKSLSEKIFNLRLSSADEDYNERQTINMKNFVHMKDLIELKIEDLQEQLMRNKNESSTVLTQRELWLDCQKKVGDLESKLITKLRSSSNSKIPPNEMSEMINSTIQYLNNLLDSSDEKLTTTLISNERDVLSKACEELHSESTTAQDGSSALPSKPIDIHKSHKGSNASSNLKQPSTPSFLVASKSPPKIGISESVVNANKNDAISKKVE
B2: Atg23 M5 (recombinant, purified) (natural protein, S. cerevisiae, UniProt Q06671 1-453, looked up)
chain: MELNQVLEKKEQILQYLGTLVGLHEKALSDVNSASQVTSIRKDITICLNDLCRINDLLVSHDGLLEEEIGSLLEDKQELLELNEEEQLLWKERKSWHIKQETDAAPADYVIDKDAIITISSHHRTSLNKYIESVGAENTILSNTDDSDAMIEEVQNAESSADQMIRNYKLLQLSHKQAKSEIIRLETLLRDFKKDNKFIEEELKRQSGRIRSEMGNIDFHLSKIEESKHQLMKRIGFESPLTQEKSLSEKIFNLRLSSADEDYNERQTINMKNFVHMKDLIELKIEDLQEQLMRNENESSTVLTQRELWLDCQKKVGDLESKLITKLRSSSNSKIPPNEMSEMINSTIQYLNNLLDSSDEKLTTTLISNERDVLSKACEELHSESTTAQDGSSALPSKPIDIHKSHKGSNASSNLKQPSTPSFLVASKSPPKIGISESVVNANKNDAISKKVE
B3: Atg23 M3 (recombinant, purified) (natural protein, S. cerevisiae, UniProt Q06671 1-453, looked up)
chain: MELNQVLEKKEQILQYLGTLVGLHEKALSDVNSASQVTSIRKDITICLNDLCRINDLLVSHDGLLEEEIGSLLRDKQELLELNEREQLLWKERKSWHIKQETDAAPADYVIDKDAIITISSHHRTSLNKYIESVGAENTILSNTDDSDAMIEEVQNAESSADQMIRNYKLLQLSHKQAKSEIIRLETLLRDFKKDNKFIEEELKRQSGRIRSEMGNIDFHLSKIEESKHQLMKRIGFESPLTQEKSLSEKIFNLRLSSADEDYNERQTINMKNFVHMKDLIELKIEDLQEQLMRNKNESSTVLTQRELWLDCQKKVGDLESKLITKLRSSSNSKIPPNEMSEMINSTIQYLNNLLDSSDEKLTTTLISNERDVLSKACEELHSESTTAQDGSSALPSKPIDIHKSHKGSNASSNLKQPSTPSFLVASKSPPKIGISESVVNANKNDAISKKVE
B4: Atg23 M4 (recombinant, purified) (natural protein, S. cerevisiae, UniProt Q06671 1-453, looked up)
chain: MELNQVLEKKEQILQYLGTLVGLHEKALSDVNSASQVTSIRKDITICLNDLCRINDLLVSHDGLLEEEIGSLLRDKQELLELNEREQLLWKERKSWHIKQETDAAPADYVIDKDAIITISSHHRTSLNKYIESVGAENTILSNTDDSDAMIEEVQNAESSADQMIRNYKLLQLSHKQAKSEIIRLETLLRDFKKDNKFIEEELKRQSGRIRSEMGNIDFHLSKIEESKHQLMKRIGFESPLTQEKSLSEKIFNLRLSSADEDYNERQTINMKNFVHMKDLIELKIEDLQEQLMRNENESSTVLTQRELWLDCQKKVGDLESKLITKLRSSSNSKIPPNEMSEMINSTIQYLNNLLDSSDEKLTTTLISNERDVLSKACEELHSESTTAQDGSSALPSKPIDIHKSHKGSNASSNLKQPSTPSFLVASKSPPKIGISESVVNANKNDAISKKVE

Molecular target: the molecule itself
Assay: AUC

Stoichiometry N, 2:
B1, B2, B3, B4
